Results from paper PMC4815329, “Biochemical and Molecular Characterization of a Flavonoid 3-O-glycosyltransferase Responsible for Anthocyanins and Flavonols Biosynthesis in Freesia hybrida” (Frontiers in Plant Science, 2016).

Experiments:
[1] = substrate: Oc1cc(O)c2cc(O)c(-c3cc(O)c(O)c(O)c3)[o+]c2c1; assay: HPLC of glucoside product, initial rates, Lineweaver-Burk; assay type: biochemical, Freesia hybrid cultivar; settings: apparent Km, 10 mM UDP-glucose, 100 mM potassium phosphate pH 8.0, 30°C, 2 min
From the text: (§1) HPLC of glucoside product, initial rates, Lineweaver-Burk on Fh3GT1

[2] = substrate: O=c1c(O)c(-c2ccc(O)c(O)c2)oc2cc(O)cc(O)c12; assay: as above; assay type: biochemical, Freesia hybrid cultivar; settings: apparent Km, 10 mM UDP-glucose, 100 mM potassium phosphate pH 8.0, 30°C, 2 min
From the text: as §1

B1: Fh3GT1 (Freesia hybrid cultivar) (protein)
chain: MGSADRSHVALLAFPFGTHAAPLLSLGLNLASSAPHGTTFSFLSNRRPVSLPPNSAIKFYEIADGSDPEHEGHVHPEEEVRVFMEETPGNYKKALEAAVDRCGGQRVTCIVADAFLWFVGDIAAEFGVHWVPLWTGGPCSFLAHLYTDMLRNKIGTGKEADPDEDLQFLPGLSGFRVRDLPDDIVTGDLTGAFASLLHRMSIEIPRSAAAIAINTFEGLHPDIDADLASKFKKSLPIGPLNLLNPTLNQPDRFSCLAWLDKFEPHSVAYVSFGTLAALTEAELVELASGLEQSGVPFLWSLKEPGQLPAGFLDRTKDRGLVVPWVPQAEALKHVAVGASLSHCGWNSVMESVTSGVPMLCRPFLGDQTMNARAVSHVWKVGVTFENGTMTRANVAEAMKKVVVGEEGRKMRERAAAIREMAAGSVRPGGSSVQNFKALLDIVIAR
notes: full-length ORF, pET-28a(+), N-terminal His tag, E. coli BL21(DE3), Ni Sepharose purified; cDNA described in Sui et al. 2011; Asn-244 (NPTL) and Asn-386 (NGTM)
- Km [1]: 58.88 ± 1.68 µM
- kcat [1]: 0.53 ± 0.01 s⁻¹
- kcat/Km [1]: 9060 M⁻¹ s⁻¹
- Km [2]: 98.47 ± 4.96 µM
- kcat [2]: 4.59 ± 0.035 s⁻¹
- kcat/Km [2]: 48500 M⁻¹ s⁻¹
